From US20260209362A1 (VIB VZW, published 2026)

T1: biotinylated recombinant human IL-12Rβ2 (produced in-house) (human, UniProt Q99665 24-622, random biotinylated)
T1 construct: also called hIL-12RB2; hIL12RB2
T1 sequence: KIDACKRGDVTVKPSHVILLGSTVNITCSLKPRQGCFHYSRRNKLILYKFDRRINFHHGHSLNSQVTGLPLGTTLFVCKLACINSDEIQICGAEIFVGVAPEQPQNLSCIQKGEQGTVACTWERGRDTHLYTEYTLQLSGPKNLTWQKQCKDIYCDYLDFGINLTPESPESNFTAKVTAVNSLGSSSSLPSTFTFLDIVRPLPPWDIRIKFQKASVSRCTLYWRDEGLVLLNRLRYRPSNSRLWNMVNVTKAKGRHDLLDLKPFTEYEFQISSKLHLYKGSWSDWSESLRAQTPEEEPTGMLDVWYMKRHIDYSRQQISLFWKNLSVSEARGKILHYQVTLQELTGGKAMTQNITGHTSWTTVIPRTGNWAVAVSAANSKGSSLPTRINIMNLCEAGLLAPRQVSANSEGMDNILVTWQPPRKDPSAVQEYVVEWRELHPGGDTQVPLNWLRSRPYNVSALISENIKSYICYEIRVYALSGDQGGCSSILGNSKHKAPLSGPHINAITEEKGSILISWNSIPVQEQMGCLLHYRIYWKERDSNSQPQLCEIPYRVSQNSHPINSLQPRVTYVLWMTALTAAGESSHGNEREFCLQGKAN

T2: biotinylated recombinant mouse IL-12Rβ2 (produced in-house) (mouse, UniProt P97378 24-637, random biotinylated)
T2 construct: also called mIL-12RB2; mIL12RB2
T2 sequence: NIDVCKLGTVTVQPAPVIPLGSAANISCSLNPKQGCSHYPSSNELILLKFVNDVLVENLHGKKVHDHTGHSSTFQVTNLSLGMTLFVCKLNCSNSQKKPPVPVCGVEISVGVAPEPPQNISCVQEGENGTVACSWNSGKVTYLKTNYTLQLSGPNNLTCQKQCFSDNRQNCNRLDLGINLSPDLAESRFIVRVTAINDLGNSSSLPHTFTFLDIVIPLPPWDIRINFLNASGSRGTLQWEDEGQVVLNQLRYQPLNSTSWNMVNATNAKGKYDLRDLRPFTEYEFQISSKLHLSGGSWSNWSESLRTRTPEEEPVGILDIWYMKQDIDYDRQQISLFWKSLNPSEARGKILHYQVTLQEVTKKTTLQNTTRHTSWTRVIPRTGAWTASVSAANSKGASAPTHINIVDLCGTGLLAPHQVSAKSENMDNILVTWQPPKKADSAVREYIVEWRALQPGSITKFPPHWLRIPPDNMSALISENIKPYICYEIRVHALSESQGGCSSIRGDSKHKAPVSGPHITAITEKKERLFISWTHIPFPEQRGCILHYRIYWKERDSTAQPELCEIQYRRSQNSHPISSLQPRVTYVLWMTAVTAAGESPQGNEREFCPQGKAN

T3: mouse IL-12Rβ2 expressed on cells (mouse, UniProt P97378 24-874)
T3 construct: HEK293T cells, stably transduced (cDNA NM_008354); also called mIL-12RB2
T3 sequence: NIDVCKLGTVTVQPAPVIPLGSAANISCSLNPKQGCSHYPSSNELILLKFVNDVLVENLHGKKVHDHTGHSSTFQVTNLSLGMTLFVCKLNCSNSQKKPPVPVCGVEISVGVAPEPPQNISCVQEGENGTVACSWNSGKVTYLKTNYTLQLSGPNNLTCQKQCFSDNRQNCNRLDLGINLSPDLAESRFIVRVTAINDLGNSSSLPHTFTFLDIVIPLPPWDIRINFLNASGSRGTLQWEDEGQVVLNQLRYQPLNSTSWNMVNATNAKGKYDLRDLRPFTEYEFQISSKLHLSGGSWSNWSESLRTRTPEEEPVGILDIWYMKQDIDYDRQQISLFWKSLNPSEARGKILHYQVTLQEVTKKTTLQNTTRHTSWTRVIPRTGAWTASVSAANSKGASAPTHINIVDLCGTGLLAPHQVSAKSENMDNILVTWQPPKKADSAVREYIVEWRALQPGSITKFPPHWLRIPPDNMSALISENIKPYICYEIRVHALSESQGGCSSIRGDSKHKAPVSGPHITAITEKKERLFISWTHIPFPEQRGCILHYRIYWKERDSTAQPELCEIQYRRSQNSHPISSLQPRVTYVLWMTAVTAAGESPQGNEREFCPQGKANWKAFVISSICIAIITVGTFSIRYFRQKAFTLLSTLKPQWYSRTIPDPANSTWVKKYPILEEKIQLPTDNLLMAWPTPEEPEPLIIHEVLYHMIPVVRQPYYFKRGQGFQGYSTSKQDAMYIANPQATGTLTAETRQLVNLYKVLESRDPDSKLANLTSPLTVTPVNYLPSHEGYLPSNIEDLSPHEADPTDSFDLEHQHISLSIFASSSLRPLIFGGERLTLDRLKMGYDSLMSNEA


Columns and labels:
[1] = target: T1, biotinylated recombinant human IL-12Rβ2 …; experiment: ELISA, P.E. VHH on biotinylated hIL-12RB2, signal ratio to control well
[2] = target: T2, biotinylated recombinant mouse IL-12Rβ2 …; experiment: BLI (Octet), P.E. VHH on immobilised biotinylated mIL-12RB2, 1:1 model
[3] = target: T2, biotinylated recombinant mouse IL-12Rβ2 …; experiment: BLI (Octet), P.E. VHH on immobilised biotinylated mIL-12RB2
[4] = target: T3, mouse IL-12Rβ2 expressed on cells; experiment: flow cytometry, P.E. VHH on HEK293T cells transiently expressing mIL-12RB2
[5] = target: T2, biotinylated recombinant mouse IL-12Rβ2 …; experiment: ELISA, P.E. VHH on biotinylated mIL-12RB2, signal ratio to control well

Binder	ELISA hIL12RB2/control [1]	koff [2] [s⁻¹]	Response [3]	% cells bound [4] [%]	dMFI [4]	ELISA mIL12RB2/control [5]
anti-IL-12Rβ2 VHH clone 3CRHM73 (VHH, not shown: small tags and cut ends, tested as periplasmic extract; also called 21060) VHH: QVQLQESGGGLVQAGGSLSLSCAASGSAFRLNFMGWYRQAPGKQRELVAAINSGGTEIYHDSVKGRFTISRDNADSTVWLQMNSLKPDDTAVYYCAADRGISWSKLAGGMDYWGKGTQVTVSS	6.9	0.00605	0.944	10.4	257	26.3
anti-IL-12Rβ2 VHH clone 3CRHM14 (VHH, not shown: small tags and cut ends, tested as periplasmic extract) VHH: QVQLQESGGGLVQAGGSLRLSCAASGRTFSNYAMAWFRQAPGTEREFVAGLSGSGGDTEFYDDSVKGRFAISRDSAKNTVWLQMNSLKPEDTAVYYCAAATHVVVHYGLVRRRGTYDYWGQGTQVTVSS	3.11	0.00483	0.957	18.6	312	25.1
anti-IL-12Rβ2 VHH clone 3CRHM99 (VHH, not shown: small tags and cut ends, tested as periplasmic extract; also called 21062) VHH: QVQLQESGGGLVQPGGSLRLSCAASGISSSRLHVGWFRQSPGKEREFVAAISLSGGTQAYTDSVKGRFTISGDNVKNTAYLQMNSLRPEDTAVYYCAARERFIWTWSDLTYDYWGQGTQVTVSS	4.24	0.00671	0.812	10.7	251	5.24
anti-IL-12Rβ2 VHH clone 3CAHM11 (VHH, not shown: small tags and cut ends, tested as periplasmic extract) VHH: QVQLQESGGGLVQAGGSLRLSCAASGRTFNNYAMAWFRQAPGKEREFIAAITRSDTTLYIDSVKGRFTISRDNAKNTVALQMNSLKPEDTAVYYCAAGMPYSYSDYPRDSKYDYWGRGTQVTVSS	3.04	0.00462	1.03	7.53	194	38.8
